± gives the standard error. For some of these results: This sample holds only a part of the variants without activity.
B1: glmS ribozyme (parent)
chain: AUAAAAGCGCCAGAACUACAGAAAUGUAGUUGACGAGGAGGAGGUUUAUCGAAUUUUCGGCGGAUGCCUCCAAA

How the values were obtained:
Settings in all cases: with glucosamine-6-phosphate
glucosamine-6-phosphate [1] = variants of: B1; test: kcat; higher = faster cleavage; RNA array
How it was run: (§1)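 Barcoded glmS ribozyme variants on sequenced MiSeq chips were transcribed in situ by E. coli RNA polymerase and tracked through a hybridised Cy3 probe at 37 °C. Glucosamine-6-phosphate (40 μM to 10 mM) in HEPES/KCl/Mg(OAc)2 buffer was flowed in, and tiles were imaged over ~14 h. Signals were normalised to baseline and to non-cleaving reference variants; per-tile medians were fit to one- or two-exponential decays to give kobs. kcat and KM came from weighted Michaelis–Menten fits across concentrations.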

glucosamine-6-phosphate [2] = variants of: B1; test: KM; higher = weaker cofactor use; RNA array
How it was run: as §1

glucosamine-6-phosphate [3] = variants of: B1; test: self-cleavage kobs at 40 uM GlcN6P; higher = faster cleavage; RNA array
How it was run: as §1

glucosamine-6-phosphate [4] = variants of: B1; test: self-cleavage kobs at 160 uM GlcN6P; higher = faster cleavage; RNA array
How it was run: as §1

glucosamine-6-phosphate [5] = variants of: B1; test: self-cleavage kobs at 640 uM GlcN6P; higher = faster cleavage; RNA array
How it was run: as §1

glucosamine-6-phosphate [6] = variants of: B1; test: self-cleavage kobs at 2500 uM GlcN6P; higher = faster cleavage; RNA array
How it was run: as §1

glucosamine-6-phosphate [7] = variants of: B1; test: self-cleavage kobs at 10000 uM GlcN6P; higher = faster cleavage; RNA array
How it was run: as §1

| Variant | kcat (glucosamine-6-phosphate [1]) | KM (glucosamine-6-phosphate [2]) | self-cleavage kobs at 40 uM GlcN6P (glucosamine-6-phosphate [3]) | self-cleavage kobs at 160 uM GlcN6P (glucosamine-6-phosphate [4]) | self-cleavage kobs at 640 uM GlcN6P (glucosamine-6-phosphate [5]) | self-cleavage kobs at 2500 uM GlcN6P (glucosamine-6-phosphate [6]) | self-cleavage kobs at 10000 uM GlcN6P (glucosamine-6-phosphate [7]) |
| --- | --- | --- | --- | --- | --- | --- | --- |
| A42G C70G | 0.000261 ± 5.1e-05 s⁻¹ | 261 ± 120 µM | 4.1e-05 ± 7.7e-06 s⁻¹ | 8.07e-05 ± 1.4e-05 s⁻¹ | 0.000216 ± 2.7e-05 s⁻¹ | 0.000414 ± 6.1e-05 s⁻¹ | 0.000223 ± 2.5e-05 s⁻¹ |
| G35C U65G | < 1e-05 s⁻¹ | 1500 ± 360 µM | < 1e-05 s⁻¹ | < 1e-05 s⁻¹ |  | < 1e-05 s⁻¹ |  |
| A12U A52C C67A | 2.65e-05 ± 5e-06 s⁻¹ |  |  |  |  |  |  |
| U46A G66C | 0.00211 ± 0.0008 s⁻¹ |  | 5.47e-05 ± 1.7e-05 s⁻¹ | 0.000161 ± 4.3e-05 s⁻¹ | 0.00053 ± 0.00011 s⁻¹ | 0.000776 ± 0.00018 s⁻¹ | 0.00237 ± 0.00038 s⁻¹ |
| G29U U46A | 0.000356 ± 1.1e-05 s⁻¹ | 2530 ± 150 µM |  |  | 7.15e-05 ± 1.2e-05 s⁻¹ | 0.000184 ± 3.7e-05 s⁻¹ | 0.000282 ± 3.6e-05 s⁻¹ |
| A14G A42G A53G | 0.0447 ± 0.015 s⁻¹ | 781 ± 340 µM | 0.00216 ± 0.00072 s⁻¹ |  |  |  | 0.0405 ± 0.019 s⁻¹ |
| U31G U55G U56C | 0.00133 ± 0.00026 s⁻¹ | 4490 ± 1500 µM |  | 7.22e-05 ± 2.4e-05 s⁻¹ | 0.000162 ± 3.4e-05 s⁻¹ | 0.000395 ± 9.8e-05 s⁻¹ | 0.000948 ± 0.00012 s⁻¹ |
| G37C G59U | 1.65e-05 ± 6.9e-06 s⁻¹ |  |  |  |  |  |  |
| A48U U56G | 0.000239 ± 3.7e-06 s⁻¹ | 1590 ± 58 µM |  |  | 6.91e-05 ± 2e-05 s⁻¹ |  | 0.000206 ± 3.9e-05 s⁻¹ |
| G40A A64G | 0.00353 ± 0.0011 s⁻¹ | 3100 ± 1400 µM | 7.68e-05 ± 1.3e-05 s⁻¹ | 0.000131 ± 3.3e-05 s⁻¹ | 0.000538 ± 9e-05 s⁻¹ | 0.00188 ± 0.00029 s⁻¹ | 0.00259 ± 0.00038 s⁻¹ |
| A15C U55G C70A | 4.71e-05 ± 9.2e-06 s⁻¹ |  |  |  | 5.4e-05 ± 1.4e-05 s⁻¹ | 4.46e-05 ± 1.3e-05 s⁻¹ | 3.54e-05 ± 1.7e-05 s⁻¹ |
| G26U A48C | 0.000587 ± 6e-05 s⁻¹ | 4480 ± 710 µM |  |  | 7.06e-05 ± 1.4e-05 s⁻¹ | 0.000222 ± 3.5e-05 s⁻¹ | 0.000394 ± 7.4e-05 s⁻¹ |
| A14C A53G C58A C70G | 3.76e-05 ± 1.2e-05 s⁻¹ |  |  | 5.16e-05 ± 2e-05 s⁻¹ |  |  |  |
| A14G U31A U57A C71G | 2.93e-05 ± 8.2e-06 s⁻¹ |  |  |  |  |  |  |
| A14U A39U | 0.00814 ± 0.0024 s⁻¹ | 3050 ± 1200 µM | 0.000133 ± 1.7e-05 s⁻¹ | 0.000258 ± 6.7e-05 s⁻¹ | 0.00161 ± 0.00024 s⁻¹ | 0.00346 ± 0.00063 s⁻¹ | 0.00632 ± 0.00089 s⁻¹ |
| G41C U49G | < 1e-05 s⁻¹ |  |  | < 1e-05 s⁻¹ |  |  |  |
| C68U U69A | 1.58e-05 ± 6.2e-06 s⁻¹ |  | < 1e-05 s⁻¹ |  |  |  |  |
| C50G G60A | 4.61e-05 ± 2.1e-05 s⁻¹ |  |  | 7.6e-05 ± 1.9e-05 s⁻¹ |  | 4.5e-05 ± 1.8e-05 s⁻¹ |  |

| Variant | kcat (glucosamine-6-phosphate [1]) | KM (glucosamine-6-phosphate [2]) | self-cleavage kobs at 40 uM GlcN6P (glucosamine-6-phosphate [3]) | self-cleavage kobs at 160 uM GlcN6P (glucosamine-6-phosphate [4]) | self-cleavage kobs at 640 uM GlcN6P (glucosamine-6-phosphate [5]) | self-cleavage kobs at 2500 uM GlcN6P (glucosamine-6-phosphate [6]) | self-cleavage kobs at 10000 uM GlcN6P (glucosamine-6-phosphate [7]) |
| --- | --- | --- | --- | --- | --- | --- | --- |
| U31G U45A | 0.0285 ± 0.0073 s⁻¹ | 2180 ± 720 µM | 0.000531 ± 0.00011 s⁻¹ | 0.00206 ± 0.0004 s⁻¹ | 0.00653 ± 0.0013 s⁻¹ | 0.0105 ± 0.0037 s⁻¹ | 0.0291 ± 0.0063 s⁻¹ |
| C16G U49G | 6.89e-05 ± 1.1e-05 s⁻¹ |  |  |  |  | 5.02e-05 ± 1.3e-05 s⁻¹ | 5.76e-05 ± 1.1e-05 s⁻¹ |
| A48C C71U | 0.000393 ± 1.6e-05 s⁻¹ | 5220 ± 390 µM |  |  | 4.42e-05 ± 7.8e-06 s⁻¹ | 0.000123 ± 1.7e-05 s⁻¹ | 0.00026 ± 2.4e-05 s⁻¹ |
| U55A C68A | 7.99e-05 ± 1.6e-05 s⁻¹ |  |  | 6.93e-05 ± 1.2e-05 s⁻¹ | 8.04e-05 ± 2.1e-05 s⁻¹ | 6.96e-05 ± 1.3e-05 s⁻¹ |  |
| G9U G59A | < 1e-05 s⁻¹ |  | < 1e-05 s⁻¹ |  |  | < 1e-05 s⁻¹ |  |
| C68U U69G C70U | 1.34e-05 ± 6e-06 s⁻¹ |  |  |  |  |  |  |
| A14C U47A | 0.00403 ± 0.00081 s⁻¹ | 2760 ± 760 µM | 7.39e-05 ± 9.6e-06 s⁻¹ | 0.000213 ± 3.2e-05 s⁻¹ | 0.000676 ± 8.4e-05 s⁻¹ | 0.00184 ± 0.0002 s⁻¹ | 0.00348 ± 0.00048 s⁻¹ |
| G44A A53U | 0.000232 ± 3.9e-05 s⁻¹ | 1820 ± 680 µM |  |  | 5.47e-05 ± 1.1e-05 s⁻¹ | 0.000174 ± 2.8e-05 s⁻¹ | 0.000182 ± 2.7e-05 s⁻¹ |
| U46G U47C | 0.00353 ± 0.0011 s⁻¹ | 981 ± 440 µM | 0.000104 ± 2.7e-05 s⁻¹ | 0.000744 ± 0.00015 s⁻¹ | 0.00158 ± 0.00026 s⁻¹ | 0.00225 ± 0.00047 s⁻¹ | 0.00332 ± 0.0012 s⁻¹ |
| A12U G51A | 1.05e-05 ± 2.6e-06 s⁻¹ |  |  |  |  |  |  |
| U30A C70A | 6.65e-05 ± 2.4e-05 s⁻¹ |  |  |  |  | 7.75e-05 ± 1.6e-05 s⁻¹ | 5.12e-05 ± 1.3e-05 s⁻¹ |
| G37A G43U | 4.94e-05 ± 4.8e-06 s⁻¹ | 620 ± 300 µM | < 1e-05 s⁻¹ | < 1e-05 s⁻¹ |  | 4.23e-05 ± 7.6e-06 s⁻¹ | 4.34e-05 ± 1.1e-05 s⁻¹ |
| A48G U65G | 8.76e-05 ± 3.5e-05 s⁻¹ |  | < 1e-05 s⁻¹ | < 1e-05 s⁻¹ |  |  | 3.81e-05 ± 1.3e-05 s⁻¹ |
| C50G G62A | 0.000121 ± 5.5e-05 s⁻¹ |  | 3.58e-05 ± 1.1e-05 s⁻¹ | 0.000128 ± 2.4e-05 s⁻¹ |  | 0.000168 ± 3.3e-05 s⁻¹ |  |
| G41A U54C | 0.000448 ± 5.8e-05 s⁻¹ | 1810 ± 510 µM |  |  | 0.00013 ± 2.5e-05 s⁻¹ | 0.000223 ± 4.7e-05 s⁻¹ | 0.0004 ± 5.8e-05 s⁻¹ |
| A48C C68G | < 1e-05 s⁻¹ |  | < 1e-05 s⁻¹ |  |  |  | < 1e-05 s⁻¹ |
| U46A A64C | 4.04e-05 ± 4.1e-06 s⁻¹ |  | < 1e-05 s⁻¹ |  |  |  |  |
